From the nanobody polyreactivity screen of Harvey et al. (2022)

Assay: yeast display, Sf9 membrane polyspecificity reagent, FACS + sequencing; frameworks hold sequencing errors
Method in brief: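 A synthetic nanobody library was expressed on Saccharomyces cerevisiae BJ5465 by galactose induction for 36–48 hours. The library was stained for 1 hour at 4 °C with 10% biotinylated, detergent-solubilized Sf9 membrane reagent and enriched with streptavidin microbeads before FACS. Low and high (top ~1%) gates were set on anti-HA fluorescence for expression and streptavidin fluorescence for reagent binding, and each polyreactivity label reflects the gate of origin.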

Sequence | polyreactivity (PSR sort gate)
QVQLVESGGGLVQAVGRLRLSCAASGSTFAIYAMGWYRQAPGKERELVAAITVSGGSTYYADSVKGRFTISRDNAKNTVYLQMNSLKPEDTAVYYCNADWSGWQGWYNYWGQGTQVTVSS | low polyreactivity
QVQLVESGGGLVQAVGSLRLSCAACGSIFYWNALGWYRQAPGKEREFVASIRKSGGSTNYADSVKGRFTISRDNAMNTVYLQMNSMKPEDSAVYDCAAYSYYRGPIYDYWGQGTQVTVSS | low polyreactivity
QVQLVESGGGLVQAVGSLRLSCAASGFPFRRYALGCYRQAPGKERELDATISSSGASTYYADSVKGRFTISRDHAKNTVYFKMIRLKPVDTAVYYCAATKGSICKLYLYCLFDYWGQGTQVTVSS | high polyreactivity
QVQLVESGGGLVQAVGSLRLSCAASGGIFRVYAMGWYREAPGKEREMVAAIRWTGGSTYYADSVKGRFKISRDNAKNTVYLQMKRLKPEDTAVYYWAAGRYYSDGSRTIYDYWGQGTQVTVSS | low polyreactivity
QVQLVESGGGLVQAVGSLRLSCAASGGTIDIYAMGWYRQAPAKERELVARISYSSGSTHYADSVKGRFTNSRDNAKNTVYLQMNSLKPEDTAVYYCAATAYWFYAKYYYWGQGTQVTVSS | high polyreactivity
QVQLVESGGGLVQAVGSLRLSCAASGRIFRVNAMGWYRQAPGKERELVASITSGGSTHYADSVKGRFTISRDNAKNTVYLQMNSLKPEDTAVYYCNVAYGLLWISPGGDYWGQGTQVTVSS | low polyreactivity
QVQLVESGGGLVQAVGSLRLSCAASGRTFYYYAMGWYRQAPGKERELVASITYYADSVKGRFTISRDNAKNTVYLQMKSLKPEDTAVYYCAARANSYHSFTSHYDYWGQGTQVSVSS | low polyreactivity
QVQLVESGGGLVQAVGSLRLSCAASGSIFGGYAMGWYRQAPGKERELVAAITYSGGSTYYADSVKGRFTISRDNAKNTVYLQMNSLKPEDTAVYYCAAESYDPYYEYDYWGQGTQVTVSS | high polyreactivity
QVQLVESGGGLVQAVGSLRLSCAASGSIFQPYAMGWYRQAPGKERELVAAISIGDSTNYADSVKGRFTISRDNAKNTVYLQMNSLKPEDTAVYYCNTTGEYYDYWGQGTQVTVSS | low polyreactivity
QVQLVESGGGLVQAVGSLRLSCAASGSTFLLNAMGWYRQAPGKEREFVAAITGNAGSTYYADSVKGRFTISRDNAKNTVYLQMNSLKPEDTAVYYCAAALPGYDGDYWGQGTQVTVSS | low polyreactivity
QVQLVESGGGLVQAVGSLRLSCAASGSTLTSYGMGWYRQAPGKERELVAAISRNGGGTYYADSVKGRFTISRDNAKNTVYLQMNSLKPEDTAGYYCAVVRYSSRYDYWGQGTQVTVSS | high polyreactivity
QVQLVESGGGLVQAVGSLRLSCADSGLPFYRNAMGWYRQARGKVRELVAAISLRGGSTYYADSVKGRFTISRDHAKNPVYLQMNSLKPEDTAVYYCAARRWWLNLDYWGQGTQVTVSS | high polyreactivity
QVQLVESGGGLVQAVGSLRLSCDATGSTLHKNTMGWYRQAPAKERELVAAISRRGGSTYYADSVKGRFTISRDNAKITVYLQMNSLKPEDTAVYYCATEGYDGEFDYWGQGTQVTVSS | high polyreactivity
QVQLVESGGGLVQAVGSLRLTCAASGITFLNYAMGWYRQAPGKERELVSAISWSGGRTYYAVSVKGRFTISRDYAKNTVYLQMNSLKPEDTAVYYCATVYVRYRQSRLIRYGYWGQGTQVTVSS | high polyreactivity
QVQLVESGGGLVQAVVSLRLSCAASGSIFGGYAMGWYRQAPGKERELVAAISYRGASTYYADSVKGRFTISRDNAKNTVYLQMNSLKPEDTAVYYCAVAARTRARVLYGYDYWGQGTQVTVSS | low polyreactivity
QVQLVESGGGLVQEGCSLRLSCAPSGIIFGVNAMGLYRQAPAKERELVAVITWSGGSTYYADSVKGRFTISRDNAKNTVYLQMNSLKPEDTAVYYCNADSSASTIDRQGEYYYLGQGTQVTVSS | low polyreactivity

Sequence | polyreactivity (PSR sort gate)
QVQLVESGGGLVQEGGRLRISCAATGINFSWYAMGWNRPATGKERELVASITIGGNTNFADSVKGRFTISLYNAKNSVYLQMNSLKREDTAVYYCAAQTFWYGYGGGVYWGQGTQVTVSS | low polyreactivity
QVQLVESGGGLVQEGGRLRLSCAASGRIISINAMGWYRQAPGKERELVAAITRGGTTYADSVKGRFTISRDIAKNTVYLHMNRLKPEDPAVYYCNARTGRSPSGFRYWGQGTQVTVSS | high polyreactivity
QVQLVESGGGLVQEGGSIRLSCAASGRIFYFNTMGWSRQAPGKERELVAAISKNGGSTYYADSVKGRFTISRDNEKNSVYLQMNSLKPEDTAFYLCAKTRRLSPYDYWGLGTQVTVSS | high polyreactivity
QVQLVESGGGLVQEGGSLGLSCAASGRIFIPYAMGWYRQETGKEREFVATIRWRGGRTYYADSVKGRFTISRDNAKNTVYLQLYSLKPEDTAVYYCAARSNALFRFDYWGQGTQVSVSS | high polyreactivity
QVQLVESGGGLVQEGGSLRIICAASGFIFYYYAMGWYRQAPGKERELVAGISRRGGSTYYADSVKGRFTISRDNAKNTVYLQMNSLKPEDTAVYYCAALGDDATSYGYWGQGTQVTVSS | high polyreactivity
QVQLVESGGGLVQEGGSLRLICAASGLIFRTYTMGWYRQAPGKERELVATITRRGGTTYYADSVKGRFTISRDNAKNTVYLQMNSLKPEDTAVYYCAKSPYYTWKYDYWGQGTQVTVSS | high polyreactivity
QVQLVESGGGLVQEGGSLRLICAASGRIFFYYAMGWYRQAPGKERELVAAISQSGGSTYYADSVKGRFTISRDNAKNTVYLQMNSLKPEDPAVYYCNAAEPYYDTSAVAGDYWGQGTQVTVSS | low polyreactivity
QVQLVESGGGLVQEGGSLRLICAASGRTFRHNVMGWYRQAPGKQRELVAAISYSGGSTHYADSVKGRFTISRDNAKYTVYLQMNSLKPVDTAVYYCNRYSYDSHFLYPFRGHDYWGQGTQVTVSS | low polyreactivity
QVQLVESGGGLVQEGGSLRLICAASGSTFIYNAMGWYRQAPGKERELVASISTSGGSTYYADSVKGRFTISRDNAKNTVYFQMNSLIPEDTAVYYCAKRYFFKYGYWGQGTQVTVSS | high polyreactivity
QVQLVESGGGLVQEGGSLRLNCAASGSTFWGNAMGWYRQPPGKDRELVAAISTSDTSTYYADSVKGRFTISRDNAKNTVYLQMNSLKPEDTAVYFCAAEWYYGEKYDYWGQGTQVTVSS | low polyreactivity
QVQLVESGGGLVQEGGSLRLRCAASGGIFASNAMRWYRQAPGKERELLATITRGGSTNYADSVKGRFTISRDNAKNTVYLQMNSLKPEDTAVYYCAARFYSRAFWPAYYYWGQGTQVTVSS | high polyreactivity
QVQLVESGGGLVQEGGSLRLSCAASGFIFLYYAMGWYRQAPGKERELVASINRVGSTYYADSVKGRFTISRDNAKKTVYLQMNSLKPEVTAVYYCNARWIGRLTPYRRATYNYWGQVTQVTVSS | high polyreactivity
QVQLVESGGGLVQEGGSLRLSCAASGFIFTPNTMGWYRQAPGKERELVAAITTNGGRTYYADSVKGRFTISRDNAKNTVYLQMNSLKSEDTAVYYCAARYVSSFGLHAQVWSYYYCGQGTQVTVSS | high polyreactivity
QVQLVESGGGLVQEGGSLRLSCAASGFIFVTNAMGWYRQAPGKERELVAAITIGDSTYYADSVKGRFTISRDNAKNTVYLQMNSLKPEDTAVYYCAAEVGFGPGFSTIAYTFDYWGQGTQVTVSS | low polyreactivity
QVQLVESGGGLVQEGGSLRLSCAASGFTFPDYAMGWNRQAPGKERDLVAAITSSGGSTYYADSVKGRFTISRDNAKNTVYLQMNSLKPEDTAVYYCNGYISDDRYWSPAIEEDYWGQGTQVTVSS | high polyreactivity
QVQLVESGGGLVQEGGSLRLSCAASGFTFPYYAMGWYRQAPGKERELVAAISNGGSNTYYADSVKGRFTISRDNAKNTVYVQMNSLKPEDTAVYYCAARVGGSYDYWGQGTQVTVSS | high polyreactivity
